Consider 26 molecules from patent US20250154277A1 (CONCEPT TO MEDICINE BIOTECH, published 2025).

Changes are numbered by the printed parent chain.

For orientation: Kd means the free concentration of one partner at which half of the binding sites on the other are occupied at equilibrium, for simple one-to-one binding. Read a high Kd as a looser complex. As usually defined, the koff is a measure of how fast the partners let go of each other. Usually kon stands for a measure of how fast the partners come together. Read a high kon as fast association. One may read the EC50 as the concentration needed to bring the measured effect to its halfway point.

B1: 393E9_hVH2_hVL2 (antibody, V domains shown)
VH: EVQLVESGGGLIQPGGSLRLSCAASGFTFTDYYMSWVRQPPGKGLEWVGFIRNKGNGYTTENSASVKGRFTISRDNSKSTLYLQMNSLRAEDTAVYYCARYRGNPHYAMDYWGQGTLVTVSS
VL: EIVLTQSPATLSVSPGERATLSCRASESVEFYGTSFLQWYQQKPGQAPRLLIYGASNVESGIPARFSGSGSGTEFTLTISSLQSEDIAVYFCQQSRKVPSTFGGGTKVEIK
notes: humanized
B2: 393E9_hVH2_hVL1 (antibody, V domains shown)
VH: B1 VH
VL: DIVLTQSPDSLAVSLGERATINCRASESVEFYGTSFLQWYQQKPGQPPKLLIYGASNVESGVPDRFSGSGSGTDFTLTISSLQAEDIAVYFCQQSRKVPSTFGGGTKVEIK
notes: humanized
B3: 393E9_hVH5_hVL3 (antibody, V domains shown)
VH: B1 VH with I12V, G16R, A23T, P40A, T80I, R89K, A90T
VL: DIQLTQSPSSLSASVGDRVTITCRASESVEFYGTSFLQWYQQKPGKAPKLLIYGASNVESGVPSRFSGSGSGTDFTLTISSLQPEDIATYFCQQSRKVPSTFGGGTKVEIK
notes: humanized; also called Hu393E9-53
B4: 393E9_hVH6_hVL5 (antibody, V domains shown)
VH: B1 VH with I12V, P40A, S77A, T80S
VL: B1 VL with A9G, V13L, A64D, E74D, S81R, Q83E, S84P
notes: humanized
B5: 393E9_hVH6_hVL3 (antibody, V domains shown)
VH: B1 VH with I12V, P40A, S77A, T80S
VL: B3 VL
notes: humanized
B6: 393E9_hVH2_hVL3 (antibody, V domains shown)
VH: B1 VH
VL: B3 VL
notes: humanized
B7: 393E9_hVH1_hVL5 (antibody, V domains shown)
VH: B1 VH with I12V, P40A
VL: B1 VL with A9G, V13L, A64D, E74D, S81R, Q83E, S84P
notes: humanized
B8: 393E9_hVH5_hVL5 (antibody, V domains shown)
VH: B1 VH with I12V, G16R, A23T, P40A, T80I, R89K, A90T
VL: B1 VL with A9G, V13L, A64D, E74D, S81R, Q83E, S84P
notes: humanized
B9: 393E9_hVH4_hVL2 (antibody, V domains shown)
VH: B1 VH with I12V, P40A, T80S, R89K, A90T
VL: B1 VL
notes: humanized
B10: 393E9_hVH3_hVL3 (antibody, V domains shown)
VH: B1 VH with E1Q, L11V, I12V, P40A
VL: B3 VL
notes: humanized
B11: 393E9_hVH3_hVL5 (antibody, V domains shown)
VH: B1 VH with E1Q, L11V, I12V, P40A
VL: B1 VL with A9G, V13L, A64D, E74D, S81R, Q83E, S84P
notes: humanized
B12: 393E9_hVH4_hVL3 (antibody, V domains shown)
VH: B1 VH with I12V, P40A, T80S, R89K, A90T
VL: B3 VL
notes: humanized
B13: 393E9_hVH6_hVL2 (antibody, V domains shown)
VH: B1 VH with I12V, P40A, S77A, T80S
VL: B1 VL
notes: humanized; also called Hu393E9-62
B14: 393E9_hVH4_hVL5 (antibody, V domains shown)
VH: B1 VH with I12V, P40A, T80S, R89K, A90T
VL: B1 VL with A9G, V13L, A64D, E74D, S81R, Q83E, S84P
notes: humanized; also called Hu393E9-45
B15: 393E9_hVH2_hVL5 (antibody, V domains shown)
VH: B1 VH
VL: B1 VL with A9G, V13L, A64D, E74D, S81R, Q83E, S84P
notes: humanized
B16: 393E9_hVH3_hVL1 (antibody, V domains shown)
VH: B1 VH with E1Q, L11V, I12V, P40A
VL: B2 VL
notes: humanized
B17: 393E9_hVH1_hVL1 (antibody, V domains shown)
VH: B1 VH with I12V, P40A
VL: B2 VL
notes: humanized
B18: 393E9_hVH1_hVL2 (antibody, V domains shown)
VH: B1 VH with I12V, P40A
VL: B1 VL
notes: humanized
B19: 393E9_hVH1_hVL3 (antibody, V domains shown)
VH: B1 VH with I12V, P40A
VL: B3 VL
notes: humanized
B20: 393E9_hVH3_hVL2 (antibody, V domains shown)
VH: B1 VH with E1Q, L11V, I12V, P40A
VL: B1 VL
notes: humanized
B21: 393E9_hVH5_hVL2 (antibody, V domains shown)
VH: B1 VH with I12V, G16R, A23T, P40A, T80I, R89K, A90T
VL: B1 VL
notes: humanized
B22: 393E9_hVH4_hVL4 (antibody, V domains shown)
VH: B1 VH with I12V, P40A, T80S, R89K, A90T
VL: DIVLTQSPLSLPVTPGEPASISCRASESVEFYGTSFLQWYLQKPGQSPQLLIYGASNVESGVPDRFSGSGSGTDFTLKISRVEAEDIGVYFCQQSRKVPSTFGGGTKVEIK
notes: humanized
B23: 393E9_hVH5_hVL1 (antibody, V domains shown)
VH: B1 VH with I12V, G16R, A23T, P40A, T80I, R89K, A90T
VL: B2 VL
notes: humanized
B24: 393E9_hVH4_hVL1 (antibody, V domains shown)
VH: B1 VH with I12V, P40A, T80S, R89K, A90T
VL: B2 VL
notes: humanized
B25: 393E9_hVH6_hVL4 (antibody, V domains shown)
VH: B1 VH with I12V, P40A, S77A, T80S
VL: B22 VL
notes: humanized
B26: 393E9_hVH6_hVL1 (antibody, V domains shown)
VH: B1 VH with I12V, P40A, S77A, T80S
VL: B2 VL
notes: humanized

In one assay the target is T1, human 5T4-His protein (human, UniProt Q13641 32-355).
T1 construct: also called recombinant 5T4 protein (human 5T4-his tag); human 5T4 protein; not shown: His tag
T1 sequence (looked up): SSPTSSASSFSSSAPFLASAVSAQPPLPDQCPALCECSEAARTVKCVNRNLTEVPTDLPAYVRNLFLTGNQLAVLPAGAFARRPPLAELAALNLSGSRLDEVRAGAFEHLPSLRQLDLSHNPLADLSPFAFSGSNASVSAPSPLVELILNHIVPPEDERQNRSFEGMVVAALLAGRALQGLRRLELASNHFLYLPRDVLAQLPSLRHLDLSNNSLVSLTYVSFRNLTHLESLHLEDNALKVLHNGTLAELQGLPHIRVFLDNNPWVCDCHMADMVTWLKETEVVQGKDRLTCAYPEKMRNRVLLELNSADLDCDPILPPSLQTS
The assay is described as follows: SPR Biacore, Protein A capture. On the procedure: The binding of the 393E9 humanized antibodies to recombinant 5T4 protein (human 5T4-his tag) was tested with Biacore using a capture method. The mAbs were captured using Protein A chip. A serial dilution of human 5T4-his tag protein was injected over captured antibody for 3 mins at a flow rate of 30 μl/min. The antigen was allowed to dissociate for 280-800 s. All the experiments were carried out on a Biacore T200. Data analysis was carried out using the Biacore T200 evaluation software.
In general terms: In SPR one partner is held on a chip, and binding of the other changes the refractive index at the surface.
On to B1, for which the Kd was 0.594 nM, the off-rate constant (koff) turned out to be 0.00012 s⁻¹ and the kon is 201000 M⁻¹ s⁻¹.
For B2, in that order: 0.547 nM, 0.000104 s⁻¹ and 190000 M⁻¹ s⁻¹.
In turn, B3 returned a Kd of 0.7 nM, an off-rate (koff) of 0.000119 s⁻¹ and an on-rate (kon) of 170000 M⁻¹ s⁻¹.
The molecule B4 yielded an equilibrium dissociation constant (Kd) of 0.574 nM, an off-rate (koff) of 0.000122 s⁻¹ and an on-rate constant (kon) of 212000 M⁻¹ s⁻¹.
For the molecule B5, the Kd amounted to 0.691 nM, the koff came to 0.000124 s⁻¹ and the association rate constant (kon) came to 179000 M⁻¹ s⁻¹.
For B6, in that order: 0.684 nM, 0.00012 s⁻¹ and 174000 M⁻¹ s⁻¹.
For B7, in that order: 0.515 nM, 0.000112 s⁻¹ and 217000 M⁻¹ s⁻¹.
On to B8, for which the equilibrium dissociation constant (Kd) amounted to 0.598 nM, the koff amounted to 0.000121 s⁻¹ and the kon was found to be 202000 M⁻¹ s⁻¹.
For B9, in that order: 0.603 nM, 0.000123 s⁻¹ and 204000 M⁻¹ s⁻¹.
B10 came in with a Kd of 0.574 nM, a dissociation rate constant (koff) of 0.000111 s⁻¹ and a kon of 193000 M⁻¹ s⁻¹.
B11 returned a Kd of 0.502 nM, an off-rate (koff) of 0.00012 s⁻¹ and an association rate constant (kon) of 238000 M⁻¹ s⁻¹.
On the same counts, the results for B12 are 0.706 nM, 0.000128 s⁻¹ and 181000 M⁻¹ s⁻¹.
The molecule B13 displayed a Kd of 0.687 nM, a koff of 0.000137 s⁻¹ and an on-rate (kon) of 199000 M⁻¹ s⁻¹.
Turning to B14, the Kd is 0.595 nM, the koff amounted to 0.000129 s⁻¹ and the kon turned out to be 217000 M⁻¹ s⁻¹.
B15 yielded a Kd of 0.56 nM, a dissociation rate constant (koff) of 0.000122 s⁻¹ and a kon of 217000 M⁻¹ s⁻¹.
Consider B16, for which the Kd stood at 0.506 nM, the koff worked out at 0.000108 s⁻¹ and the kon is 213000 M⁻¹ s⁻¹.

For a further assay, the target named is T1, human 5T4-His protein. The assay is described as follows: ELISA, coated 5T4-His. On the procedure: To evaluate the binding activity of 393E9 humanized antibodies to human 5T4, the 393E9 chimeric antibody (393E9-C) along with 393E9 humanized mAbs were subjected to ELISA test.
Briefly, microtiter plates were coated with human 5T4-His protein at 1 μg/ml in PBS, 100 μl/well at 4° C. overnight, then blocked with 150 μl/well of 1% BSA. 4-fold dilutions of antibodies starting from 20 nM were added to each well and incubated for 1 hour at 37° C. The plates were washed with PBS/Tween and then incubated with Goat Anti-Human IgG-HRP for 30 mins at 37° C. After washing, the plates were developed with TMB substrate and analyzed by spectrophotometer at OD 450 nm. As shown in FIG. 12 and Table 9, most of the humanized antibodies bound to human 5T4 with high activity.
In general terms: ELISA stands for enzyme-linked immunosorbent assay.
Consider B17, for which the 50% effective concentration (EC50) stood at 0.18 nM.
Regarding B18, a half-maximal response (EC50) required 0.16 nM.
On the same count and under the same terms, the value for B19 was 0.085 nM; that for B1 was 0.12 nM; that for B2 was 0.17 nM.
In the case of B20, a half-maximal response (EC50) required 0.2 nM.
The molecule B3 showed a 50% effective concentration (EC50) of 0.12 nM.
On to B4, for which it took 0.19 nM to reach a half-maximal effect (EC50).
The same measure, in the same setting: the value for B5 was 0.052 nM; that for B6 was 0.11 nM.
The same measure, in the same setting: the value for B7 was 0.13 nM; that for B8 was 0.11 nM; that for B9 was 0.12 nM.
Still for that read-out and setting: to B21 belongs 0.27 nM; to B10, 0.14 nM.
In the case of B22, the concentration giving a half-maximal response (EC50) worked out at 0.16 nM.
Same read-out and setting: the value for B11 was 0.12 nM.
The molecule B23 showed a 50% effective concentration (EC50) of 0.16 nM. The EC50 values of the last two molecules are within 1.5-fold of each other.
Take B12: the EC50 was 0.13 nM.
On the same count and under the same terms, to B13 belongs 0.11 nM.
Still for that read-out and setting: the value for B24 was 0.13 nM.
Same read-out and setting: to B14 belongs 0.22 nM; to B25, 0.14 nM.
B26 yielded a concentration giving a half-maximal response (EC50) of 0.11 nM.
In turn, B15 displayed an EC50 of 0.11 nM. That is a sub-nanomolar value.
Still for that read-out and setting: the value for B16 was 0.16 nM.
